Data on five molecules can be found in US20210388105A1 (ELPISCIENCE SUZHOU BIOPHARMA, published 2021).

Common to all, as to assay: FACS on transfected HEK293F cells, relative binding = AlexaFluor647 / GFP
For assay [1], the target named is T1, kw27 (Intracellular C-terminal EGFP fusion, left out of the letters).
T1 construct: not shown: C-terminal EGFP (GFPSpark) reporter of vector pCMV3-GFPSpark and any linker to it
T1 chain: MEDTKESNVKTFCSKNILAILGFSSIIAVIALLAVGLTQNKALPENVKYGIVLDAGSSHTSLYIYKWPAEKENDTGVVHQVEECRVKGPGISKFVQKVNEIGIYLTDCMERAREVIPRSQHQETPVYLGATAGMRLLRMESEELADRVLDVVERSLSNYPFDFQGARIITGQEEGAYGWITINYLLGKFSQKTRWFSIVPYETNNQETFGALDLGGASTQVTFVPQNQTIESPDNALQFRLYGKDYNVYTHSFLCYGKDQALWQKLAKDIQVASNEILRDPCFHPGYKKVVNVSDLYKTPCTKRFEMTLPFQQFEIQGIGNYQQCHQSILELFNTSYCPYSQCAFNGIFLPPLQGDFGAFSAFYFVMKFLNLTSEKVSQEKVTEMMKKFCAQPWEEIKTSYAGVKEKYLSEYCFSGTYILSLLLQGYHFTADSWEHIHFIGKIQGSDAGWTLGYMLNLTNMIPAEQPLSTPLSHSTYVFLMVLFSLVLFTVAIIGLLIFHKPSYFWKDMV
The method, then: (§1) Briefly, the human CD39 mutants were generated by gene synthesis and then cloned into an expression vector pCMV3-GFPSpark. The vectors containing the validated mutated sequences were prepared and transfected into HEK293F cells. Three days post transfection, the cells were collected to testing EGFP for transgene expression. A range of dosages of antibodies (start from 100 nM, 3-folds dilution, 11 points) were tested on the 20 generated mutants and stained by AlexFluor647 labelled anti-hIgG by FACS. Antibody binding was descripted as relative binding which is derived from AlexFluor647 intensity divided by GFP intensity.

In assay [2] the target is T2, KW27-6 (human CD39 mutant, C-terminal EGFP) (human, UniProt P49961 1-510).
T2 construct: expressed on HEK293F cells; not shown: C-terminal EGFP fusion (vector pCMV3-GFPSpark)
T2 chain: T1 chain with Q96A, N99A, E143A, R147E
The protocol: as §1

Assay [3] addresses T3, KW27-16 (human CD39 mutant, C-terminal EGFP) (human, UniProt P49961 1-510).
T3 construct: expressed on HEK293F cells; not shown: C-terminal EGFP fusion (vector pCMV3-GFPSpark)
T3 chain: T1 chain with K5A, E100A, D107A
The protocol: as §1

Assay [4] concerns the target T4, KW27-20 (human CD39 mutant, C-terminal EGFP) (human, UniProt P49961 1-510).
T4 construct: expressed on HEK293F cells; not shown: C-terminal EGFP fusion (vector pCMV3-GFPSpark)
T4 chain: T1 chain with R138A, M139A, E142K
The method, then: as §1

Numbering of substitutions follows the chain as printed.

B1: hu23.H5L5 (antibody, V domains shown)
VH: QVQLVQSGAEVKKPGASVKVSCKASGYNLKDTFLHWVRQAPGQGLEWMGRIDPANGNIKYDPKFQGRVTITADTSANTAYMELISLRSEDTAVYYCANSPYYYGSGYRIFDVWGQGTTVTVSS
VL: QIVLTQSPATLSLSPGERATLSCSAFSSVNYMHWYQQKPGQAPRLLIYTTSNLASGIPTRFSGSGSGTSYTLTISSLEPEDFAVYYCQQRSTYPFTFGQGTKLEIK
notes: humanized c23
Take B1: the results for the binding result in assay [1], in assay [2] and in assay [3] were “binds”, “no binding” and “binds”, respectively.

B2: c34 (antibody, V domains shown)
VH: EIQVQQSGPELVKPGASVKVSCKASGYSFTDYNMYWVKQSHGKSLEWIGFIDPYNGYTSYNQKFKGKATLTIDKSSSTAFMHLNSLTSEDSAVYYCAIYGYDDAYYFDYWGQGTTLTVSS
VL: QIVLTQSPAIMSASPGEKVTITCSATSSVSYMHWFRQKPGTSPKLWIYSTSNLASGVPARFSGSGSGTSYSLTISRMAAEDAATYYCQQRITYPFTFGSGTKLEIT
notes: its making is not described; also called chimeric antibody c34
As for B2, the binding result in assay [1] is given as “binds”; in assay [4], “binds”; in assay [2] it was “binds”; in assay [3], “no binding”.

B3: c35 (antibody, V domains shown)
VH: EVRLQQSGAELVKPGASVKLSCTASGFNIEDTYVHWMKQRPEQGLEWIGRIDPAIDNSKYDPKFQGKATITAVSSSNTAYLQLSSLTSEDTAVYYCALYDGYNVYAMDYWGQGTSVTVSS
VL: DIVMTQAAFSNPVTLGTSASISCRSSKNLLHSNGITYLYWYLQRPGQSPQLLIYRASTLASGVPNRFSGSESGTDFTLRISRVEAEDVGVYYCAQLLELPHTFGGGTKLEIK
notes: its making is not described; also called chimeric antibody c35
For the molecule B3, the binding result in assay [1], in assay [4] and in assay [2] was “binds” in each case.

B4: Antibody 9-8B (antibody, V domains shown)
VH: QIQLVQSGPELKKPGETVKISCKASGYTFTHYGMNWVKQAPGKGLKWMGWINTYTGELTYADDFKGRFAFSLETSASTAYLQINNLKNEDTATYFCARRAYYRYDYVMDYWGQGTSVTVSS
VL: DIVMTQSQKFMSTSVGDRVSVTCKASHNVGTNVAWYQQKPGQSPKALIYSASYRYSGVPGRFTGSGSGTDFTLTISNVQSEDLAEYFCHQYNNYPYTFGGGTKLEIK
Consider B4, for which the binding result was “binds” in assay [1], “binds” in assay [4], “no binding” in assay [2] and “binds” in assay [3].

B5: Antibody T895 (antibody, V domains shown)
VH: EVQLQQSGPELVKPGASVKMSCKASGYTFTDYNMHWVKQSHGRTLEWIGYIVPLNGGSTFNQKFKGRATLTVNTSSRTAYMELRSLTSEDSAAYYCARGGTRFAYWGQGTLVTVSA
VL: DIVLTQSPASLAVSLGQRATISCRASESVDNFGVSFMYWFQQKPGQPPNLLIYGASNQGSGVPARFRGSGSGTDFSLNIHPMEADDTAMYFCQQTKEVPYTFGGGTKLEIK
notes: also called 31895
Take B5: the binding result is recorded as “binds” in assay [1], “no binding” in assay [4], “binds” in assay [2] and “binds” in assay [3].
